Test [1] concerns the target T1, SARS-CoV-2 RBD of the Wuhan strain (Acro Biosystems SPD-C82E9-25) (SARS-CoV-2, UniProt P0DTC2). Put plainly: SPR.
Test [2] addresses T1, SARS-CoV-2 RBD of the Wuhan strain …. Put plainly: SPR. The source holds these as a separate data set.

Read-outs that look alike come from different tables or passages of the source.

B1: MB043_CL39 (antibody, V domains shown)
VH: EVQLVETGGGLIHPGGSLRLSCAASEFIVSYNYMSWVRQAPGKGLEWVSVIYSGGSTFYADAVKGRFTISRDSSKNTLDLLMNSLRVEDTAVYYCARVLPSNTDYFDYWGQGILVTVSS
VL: QSVLTQPPSVSGATGQRVTISCTGSNSNIGAGSDVHWYQQLPGAAPKLLIYVNNNRPSGVPDRFSGSKSGTSASLAITGLQAEDEADYYCQSYDSSLSGYVFGTGTKVTVL
Regarding B1, binding in test [1] was characterised by a dissociation constant (Kd) of 0.0273 nM.

B2: MB027_D06L (antibody, V domains shown)
VH: EVQLVETGGGLIQPGGSLRLSCAASGFIVSSNYMSWVRQAPGKGLEWVSIIYSGGSTFYADAVKGRFTISRDNSKNTLDLQMNSLRAEDTAVYYCARVLPTSTDYFDYWGQGILVTVSS
VL: QSVLTQPPSVSGAPGQRVTISCTGSNSNIGAGSDVHWYQHLPGTAPTLLIYSNSNRPSGVPDRFSGSKSGTSASLAITGLQAEDEADYYCQSYDSSLSTYVFGTGTKVTVL
Consider B2, for which the dissociation constant Kd in test [1] was found to be 7.17 nM.

B3: MB025_A07K (antibody, V domains shown)
VH: EVQLVESGGDLVQPGGSLRLSCAASEFIVSSNYMSWVRQTPGKGLEWISVLYSGGSTFYADSVKGRFTISRDNSKNTLYLQMNSLRVEDTAVYYCARDFGEFWFDYWGQGTLVTVSS
VL: EIVLTQSPGTLSLSPGERATLSCRASQTINSYLAWYQQKPGQAPRLLIYGASSRATGIPDRFSGSGSGTDFTLTISRLEPEDFAVYYCQQYGNSPRTFGQGTKVEIK
The molecule B3 gave a Kd in test [2] of 0.159 nM.

B4: MB025_A09L (antibody, V domains shown)
VH: EVQLVESGGGLVQPGGSLRLSCAASGFSVSIFYMNWVRQAPGKGLEWVSSVYSGETTYYADSVRGRFTISRDNSKSTLYLQMNSLRPEDTAVYYCARGVDYRTNRTEGGAFDIWGQGTMVTVSS
VL: QSALTQPASVSGSPGQSIPISCTGTSSDFGNYNLISWYQQHPGKAPKLMIYEGTKRPSGVSDRFSGSKSANTASLTISGLQAEDEADYYCCSYAGSSTWMFGGGTKLTVL
The molecule B4 registered a Kd in test [2] of 0.00491 nM.

Values taken from publication PMC12148588 (2025).
